70 sequences from the domain aggregation screens of Martell et al. (2025) can be followed below.
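Also: 20 min heating vs room temperature control held 20 min.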

This series can be described thus: soluble fraction after stress (log2 fold change); higher = more stays soluble; pooled small domains, quantitative proteomics. The settings on record: stress: 75 degC.
As for “HMDWREMTAWMAELLKRRTGDDVETWNARVRESGAHDEASLRAWLTEQGVTGYAQTLLVMERFGYPDFF”, the “soluble fraction (log2)” value was -2.89. With “HMDYADISYKIFMNHIKNGQVERVELSGDPRIMGKLKDGTYFVTDNPRTENFKEFLLLNNVQVIETN” the figure was 0.738; with “HMDYEVPEELQQKFEEFPRLKEAFYQLTPGRQHQYLYYFSQAKRSQTRYNRIDKYMNAILQGKGMK”, -1.67; with “HMDYINALTTAGITDAKVIVTAPFDVSGTAALTGIYKAYEDITGSSLNEIAKAVGVEELITTGNLA”, 0.23. With “HMDYKAELDNIIRDHLDMEGPLLPVLHAVMARFSYIPKDAIPIIARKLNLSSAEVSGVISFYHDFKKEK”, the “soluble fraction (log2)” value was -1.81. Consider “HMDYKYYIVKEPMVVKNLELPVGTRIVYFNTSLFGDSESSRPLKEKNIYQIFFPDDKPLIWGGVPVSLIER”, for which the “soluble fraction (log2)” value is -2.24. With “HMDYNLTKNQKIVFNLLQNSGEPLKAYTILESLKREGLKSPLQVYRALDKLVELGIIHKIESQNSFI”, the “soluble fraction (log2)” value is -0.334. As to “HMDYNMEEWSLTADQLKSGDTILILNLGKTATLLESTRGKKNVRVRMGNIKTIVETSSIRGNPHQ”, the “soluble fraction (log2)” value was -1.77. With “HMDYPFQYFNYSHLRILGVPAQLIKAVRKAPTLDAIEQLSGLSEKTKLWLLELATEPKLEDVLFDPGR”, the “soluble fraction (log2)” value is -1.98. With “HMDYRSMSGLQKAALLIMSVGEETAAKLFQLMHDDEIREISQTMANLGTVNATVIERLFVEFADAISS”, the “soluble fraction (log2)” value is -1.1.

“HMDYVKTLGETINVRVAASTDADIYKLLPGGEILNRVGYNEEWTKVMVDGSTFYVYSEYVIQTEPPA”: the “soluble fraction (log2)” value was -1.32. Turning to “HMDYYSILGVDRNATGEDIKKAFKKKAMKYHPDRNPDNKESERKFKEAKEAYDTLSNPQKKSMYDQFGT”, the “soluble fraction (log2)” value came out at 0.149. Next, “HMEAEDLRDWVGARGIAYTALRPAGIAVVNGRRVDVVSEGAFVNRDDPVEVVRVEGRRIVVKP”: -0.0876. On to “HMEAGTEYVERAADYIRSHFQEDLTVSKLALYVGLNRSYLTTVFQNTLHVSPQQFLMRFRMERAAQLLD”, for which the “soluble fraction (log2)” value stood at 0.0997. On to “HMEAGTVTVTHAAVYIRSGPGVSYPIAGKAAKNDTYTVLQKDGDWFQIRLPQGNTGWIAGWLVETGT”, for which the “soluble fraction (log2)” value is -1.69. On to “HMEAISIYPNPTDNELHLSTSVQEVRIYNMYGIEVTRAANTDRLAVSHLPKGVYLVHADGAVLKMIK”, for which the “soluble fraction (log2)” value is -2.7.

Consider “HMEAISSESIKKMIKSYVSGEDASKPLSDQQIADLLVKEGYMISRRTVAKYRDELGILSSSKRKR”, for which the “soluble fraction (log2)” value is -0.152. For “HMEAKQMDAWIVSEAKRQGGKIEPAAAYELSRHTATDTSIASQEIAKLLMYVDFKRPVTREDVVELVSA”, the “soluble fraction (log2)” value was determined as 0.0579. Next, “HMEALPELTDRQRQVYEFIEARIAEWGYPPTIREIGQHLGIKSTNGVADHLKALKRKGYLQQ”: -0.566; “HMEALTPREREVLTLMGQGRSNAEIATLLSIAPRTAKVHVQNILSKLGATNRTEAVSLAVRQGLIS”: 0.343.

With “HMEASVNAPMPGKIVSVSVSEGQQVNAGDVLLILEAMKMQNEITADAAGTVKAINVNAGQSVKNGDSLVIL”, the “soluble fraction (log2)” value came to 0.832. For the sequence “HMEAVGLTPRQGDVLALLLQGKPNKLIARDLNLSVETVKDHVAAVLRALGVSTRTQAVLAVSQMQQQAAQ”, the “soluble fraction (log2)” value is -0.444. For the sequence “HMEAVLTISPGMYSESVSAELVRLGIITNQKEFNSYLVNNGYAERIQTGDFKIKADMSYDEIARIITK”, the “soluble fraction (log2)” value was -0.563.

As for “HMEAYDTMEDRTTLAPGFAKLDKRERYILHLRFFEGLTQSQIAERVGISQMHVSRLIRRSLEKLREEIGD”, the “soluble fraction (log2)” value is -2.67. Consider “HMEAYSAEAVRFRIKAMIESETVDDVMSDDKIVERLLADGVDIARRTVAKYREAMNIPSSVKRRRKLKGM”, for which the “soluble fraction (log2)” value was -1.92.

Consider “HMEDDRMLVWFFRKSIQNGAQSEAEGRPIFEGKDYVHIQQPGERDYIEREAHQGDIGRWPRHWQAYQEGR”, for which the “soluble fraction (log2)” value is 0.246. “HMEDEAVMQLPLSELKGLSPELLAILNGAGYEKLKDVLDLEREDIERIPGMTPERNEQLVAFLAELTE”: the “soluble fraction (log2)” value turned out to be 0.619. With “HMEDELFSVARAAFPEYASKIHMNYGSTVQSIARQSGVLTVSETKQLNENQQISYLEYSNGAVVLALA” the figure was -0.0187.

Turning to “HMEDELVMERFDINELVKSVVNANELRATQKNLSITYDILDTPLYVWADEYKVEEVVTNYLS”, the “soluble fraction (log2)” value stood at 0.00277.

With “HMEDIASESVKRVIRKIIDDEDKKSPLSDQAIVEILAKGEGIVIARRTVAKYREMMGILPSSKRKKH”, the “soluble fraction (log2)” value is -1.4. With “HMEDKIEESLEDNISELFAKTKDKYTLINDLYSKGYTVEELSRFSGLPSGEVRLVISLNSKN”, the “soluble fraction (log2)” value was -0.0653.

Turning to “HMEDKPITKEQKQAMFALLREHFSGDEGNAVYTAVLEREGLAPGDKIMSSVYDRLIDGINEAIRQKLEAGA”, the “soluble fraction (log2)” value is -0.0206. As to “HMEDNLMIVVQVNGKKRSEIKVSIDASEDQIKQTALAEPNVQKFVEGHTIRKMILVPSKLLNIVV”, the “soluble fraction (log2)” value was -1.65. “HMEDPKLAQLTEQERKILDLIADGLTNRQIAEKMFLAEKTVKNYVSTILAKMGMSNRSEAAAYVARLEAG”: the “soluble fraction (log2)” value was -0.0697. With “HMEDPPISQEQRQALFKMAHDHLGKDEGNKAILTLIQSHGLNSTTGMKVSTYNTIMEELVSTIQSLAA”, the “soluble fraction (log2)” value is -0.0374. Consider “HMEDPVAQEARAAFEVGRLLAAATGPVTLAAIRRAIDLPEERLEEILRRLEESGAVRRARDGWLPG”, for which the “soluble fraction (log2)” value is -0.0316. Consider “HMEDVDLFTKAMAALPNRYRDILLLRYSHGYTVEEISDILSMKPENVKKTIQRARKKLGEILEAEG”, for which the “soluble fraction (log2)” value was -1.25. With “HMEEDPVIAAQRFLNIFRQLHIFTAAKRKEFDELLLKQPASVKGMFASLPGGSVLQEYVNNLEQNAG”, the “soluble fraction (log2)” value was -0.564. In the case of “HMEEFIEHTVEKGEFLSAIIVAYNQHLKSKGFKSITTRDILNANPKLKPELIQVGQKIKIPRRKK”, the “soluble fraction (log2)” value was -1.71. In the case of “HMEEFLSFIADILEVDKNTLTLETSQDDVETWDSLMQLRLLGEIEAKYGVMIPMERISTIKKLNDFYQYIK”, the “soluble fraction (log2)” value was -1.12. For the sequence “HMEEIIPIRFLRHRVKRRETIFGLTQKYNITEDQLKRYNTRLYSEALERKMVLQIPVFPEVDED”, the “soluble fraction (log2)” value is -2.29. Take “HMEEITLQEQINFIKDMLLNKEKFHLTDVITKKSKIYVVSLFLALLELIRLEEINFRQTQNFSDIIISRI”: the “soluble fraction (log2)” value came to 0.0172. For “HMEELGKVRPELDGNEIAKVLGITPGPVLGRAYTYLLSVRLDEGPIGPDVARERLLAWWAEQPES”, the “soluble fraction (log2)” value was -1.2.

For “HMEELIEMNGVVMEILPDSRYRVTLDNGHKLIAYTGGKMKKNHIRILAGDKVTLELSPYDINNGRITFRHI”, the “soluble fraction (log2)” value is -1.66. On to “HMEELTDSELNNLYRELFIARSNASDGVGIIEQKTIKGITYRLSNDNNYLIKELGNKEYIYKNGVWEEYT”, for which the “soluble fraction (log2)” value is -0.155. As to “HMEENNIVIYITGAVKKEGIYEIKENSRISDAIEAAGGLLENANIKDINLAYIIEDGVKIYIPTNEEVNK”, the “soluble fraction (log2)” value is -0.409. For “HMEEPFRIEKKGDIYYISGKTVERLVAMTDLDNDSAVKRLQRTLKRMGVEDALREHGINPGDTVVIGNYEF”, the “soluble fraction (log2)” value is -0.201. Next, “HMEEQIEVPVQINGKVRSKLTVAPETDEKQIEALALADPKVQQQLEGKRVLKVIVAQKRLVNIVA”: -0.161; “HMEESTYQWNNFVRDFYASRVSAQYTNKLKVAAILWHHVKNTPQSKIYHDNLVSKYAEEINYFK”: -2.8; “HMEETEVPPVTGYEQSKASEVLTGKGLIPDIITVADEETAAGYVIRTDPASGEKVPSGTTVKVYVSSGP”: 0.248. With “HMEETGFYIKLQDQEVVIFHNDQVTPYEYTGIREEVLPESELEKLREGFFVEDEKELYSVLENLS” the figure was 0.0782; with “HMEETLEELGKEYESAFTMYEKLWSYYKKQNYHQVNHKRSERYEILLGFVREYHPEKVEYYRELL”, 0.378; with “HMEETLRALAKKISEKVLKSGRSTTLEPMNPYERRIIHSAVSEIEGVSSKSVGEEPYRKVVISSDNP”, 0.0756.

As for “HMEETLRELAVKISKQVIKTGRNSVLEPMNPYERRIIHAVISEIEGVSSKSVGEDPNRKVVIMSTNP”, the “soluble fraction (log2)” value is -0.217.

On to “HMEEYTVEFVKHKVKRKQTLYTISKLYNVSIDDIIKYNSQIEGFNLSRRMELNIPVKKTLIVKNE”, for which the “soluble fraction (log2)” value was -2.55. Next, “HMEFDTEFVLRQAMHAFMQYGYAKTSMQKLKEATHLHPGSIYAAYGNKKGLFLAATEQYQKDR”: 0.288; “HMEFEYFQLRDHLYNLIMHPDKEKLKKDPDYLKLMSMAFSLLEDQNVGKDILEIAIKSIENFK”: -0.847. Regarding “HMEFLDLEIDVDATDGRLLAFLAAKGEVVSQTFNDTIITVRVRMPTGAMGQVHRSALAIRPA”, the “soluble fraction (log2)” value was -2.24. As for “HMEFLDQAFLHETMRKVNQDATINLLKKVYEVPQKFIGRKVTVQYDPEDLSRVYVKDLSFPEPVTVYPV”, the “soluble fraction (log2)” value is -0.18. In the case of “HMEFNDLNDDEKAILHIMYNTGEKMTTALAARITNRGRNFASKLLKSLVKKEILEWHGTSKQDRNQYYTLA”, the “soluble fraction (log2)” value is -0.0971.

In the case of “HMEFQVKVIVSSLNIRSGPGTSYDTLGTVTKGDIFTIVETNSDSTWGKMQSGGWISIKDAYVKK”, the “soluble fraction (log2)” value is -3.92.

As to “HMEFTFTLPRGYIDDTGMIHREGTMRLANAADEILPLKDPRVQQNPGYLTIILLARVITKLGSL”, the “soluble fraction (log2)” value was 0.33.

In the case of “HMEFTKSPLDEIAGVGPARKRALLAAFGTAKAVSQAALADLEKTPGVNAATARLVYAHFHEK”, the “soluble fraction (log2)” value was -0.227. For the sequence “HMEFTVFMNSAGGSKLQVVKTVKELTGLGLKEAKAIVDGSPGPVKEGLSKADAEAMLAKLQEAGADVEL”, the “soluble fraction (log2)” value worked out at 0.013. For the sequence “HMEFYYSDLVGMIVYDTGGNELGKVQAVLNHGAGDLLEIHGVNLKTSILIPFTKEAVPTVDIAARRIVTDP”, the “soluble fraction (log2)” value came out at 0.246. Next, “HMEGAEDMNRALALAFLRDNSRSTVAQLAEHLGSSKRSAERLVAQLKDEGVLERQGSPRAGLWIVHI”: -0.169; “HMEGEVVESPLVGVAYLASGPDKPAFVQVGDSVSKGQTLLIIEAMKVMNEVPAPRDGIVTEILV”: 0.1; “HMEGFSAGQFVRASVDNTAFYLKRPKGDAVADKLLRRGASMKVISASGDYLKVELDSGEVGFVPPVMVE”: 0.0267. Turning to “HMEGIWAVFYDGKPINLKSSSLVANYPGPKYKKVSFSNPGHAENLAKKLNAQHNTDKFGVYLLKSGDKFS”, the “soluble fraction (log2)” value was -0.113. As to “HMEGMSIYVTVNGDMVHLTGKMSYVFVDVFEHIDFDLSKPQGSGIVTKLNGRDAQYMEEIRSGDMIEIYWR”, the “soluble fraction (log2)” value was -0.956.
